Experimental findings from PMC4671958, “Structure of the Helicase Domain of DNA Polymerase Theta Reveals a Possible Role in the Microhomology-Mediated End-Joining Pathway” (Structure(London, England:1993), 2015) are described below.

Where “and” joins values, the source holds several entries; their conditions need not be identical. Equal entries are not always repeated.

Data set [1] concerns the molecule itself. The data set is described as follows: SEC-MALS; Viscotek TDA 305 system, Shodex KW-803 silica column; in the absence of nucleotide.
Data set [2] deals with the molecule itself. The data set is described as follows: AUC; sedimentation velocity, absorbance (280 nm) and interference optics; in the absence of nucleotide.

B1: DNA polymerase theta helicase domain (Polθ-HLD), residues 67–894 (domain or fragment, human, UniProt O75417 67-894, looked up)
chain: DKLLLANWGLPKAVLEKYHSFGVKKMFEWQAECLLLGQVLEGKNLVYSAPTSAGKTLVAELLILKRVLEMRKKALFILPFVSVAKEKKYYLQSLFQEVGIKVDGYMGSTSPSRHFSSLDIAVCTIERANGLINRLIEENKMDLLGMVVVDELHMLGDSHRGYLLELLLTKICYITRKSASCQADLASSLSNAVQIVGMSATLPNLELVASWLNAELYHTDFRPVPLLESVKVGNSIYDSSMKLVREFEPMLQVKGDEDHVVSLCYETICDNHSVLLFCPSKKWCEKLADIIAREFYNLHHQAEGLVKPSECPPVILEQKELLEVMDQLRRLPSGLDSVLQKTVPWGVAFHHAGLTFEERDIIEGAFRQGLIRVLAATSTLSSGVNLPARRVIIRTPIFGGRPLDILTYKQMVGRAGRKGVDTVGESILICKNSEKSKGIALLQGSLKPVRSCLQRREGEEVTGSMIRAILEIIVGGVASTSQDMHTYAACTFLAASMKEGKQGIQRNQESVQLGAIEACVMWLLENEFIQSTEASDGTEGKVYHPTHLGSATLSSSLSPADTLDIFADLQRAMKGFVLENDLHILYLVTPMFEDWTTIDWYRFFCLWEKLPTSMKRVAELVGVEEGFLARCVKGKVVARTERQHRQMAIHKRFFTSLVLLDLISEVPLREINQKYGCNRGQIQSLQQSAAVYAGMITVFSNRLGWHNMELLLSQFQKRLTFGIQRELCDLVRVSLLNAQRARVLYASGFHTVADLARANIVEVEVILKNAVPFKSARKAVDEEEEAVEERRNMRTIWVTGRKGLTEREAAALIVEEARMILQQDLVEM
notes: DNA polymerase theta (Polθ, POLQ gene), human, helicase domain, residues 67–894; printed monomer mass 93,080 Da; Tetramer in crystals (by crystallographic symmetry) and in solution; Further construct details may stand in the Supplemental Experimental Procedures; also called Polθ helicase domain; 67–894 construct
B1: the “stoichiometry N” value in data set [1] is about 4; in data set [2], 4 and 3.2.
